Results on two substances are retold here after patent US20020006903A1.

In general, EC50 refers to the concentration giving half of the maximal effect. Low values mean a more potent agent, high ones a less potent agent.

Test [1] concerns the target T cell receptor of 2C cytotoxic T lymphocytes. Put plainly: flow cytometry on 2C T cells, varying concentrations of complex. (A flow cytometer gives signals particle by particle.)
For test [2] the target is unchanged. Put plainly: cell-based or functional assay.
For test [3] the target is unchanged. Put plainly: flow cytometry on 2C T cells, actively loaded complex at 0.1 nM.
The target is the same in test [4]. The test can be described thus: flow cytometry on 2C T cells, actively against passively loaded complex.
Test [5] shares this target. The test can be described thus: flow cytometry on 2C T cells, passively loaded complex, half maximal staining.
Test [6] shares this target. The test can be described thus: flow cytometry on 2C T cells, actively loaded complex, half maximal staining.
The target is the same in test [7]. The test can be described thus: flow cytometry on 2C T cells, passively loaded complex.
For test [8] the target is unchanged. Put plainly: flow cytometry on 2C T cells, actively loaded complex.

Chain of QL9 peptide-loaded H-2 L^d/Ig complex (P01897 25-309, one chain of several): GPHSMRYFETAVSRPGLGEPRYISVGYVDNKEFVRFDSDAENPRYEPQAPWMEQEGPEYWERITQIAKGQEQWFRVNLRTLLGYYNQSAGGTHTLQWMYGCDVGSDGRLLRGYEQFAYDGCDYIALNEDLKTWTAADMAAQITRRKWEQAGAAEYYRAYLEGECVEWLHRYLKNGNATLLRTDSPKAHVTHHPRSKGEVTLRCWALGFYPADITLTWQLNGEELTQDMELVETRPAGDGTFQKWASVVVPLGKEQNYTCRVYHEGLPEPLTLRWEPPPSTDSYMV
Chain of SIY peptide-loaded H-2 K^b/Ig complex (P01901 22-305, one chain of several): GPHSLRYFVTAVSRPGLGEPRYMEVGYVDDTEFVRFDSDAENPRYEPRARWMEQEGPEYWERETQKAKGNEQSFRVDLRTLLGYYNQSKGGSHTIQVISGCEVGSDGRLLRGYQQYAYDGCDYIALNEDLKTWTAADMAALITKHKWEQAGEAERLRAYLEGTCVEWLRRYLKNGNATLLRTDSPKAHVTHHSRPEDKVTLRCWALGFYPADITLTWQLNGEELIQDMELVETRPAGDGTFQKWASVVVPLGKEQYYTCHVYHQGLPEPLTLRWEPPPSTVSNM

On to “QL9 peptide-loaded H-2 L^d/Ig complex (from UniProt P01897 25-309) (peptide-MHC)”, for which, in test [1], the EC50 worked out at 1 nM. In test [2], this substance had a half maximal inhibition of target cell lysis by 2C CTL of 10 nM and a target cell lysis by 2C CTL (percent specific lysis, chromium release) of 2%.

“SIY peptide-loaded H-2 K^b/Ig complex (from UniProt P01901 22-305) (peptide-MHC)” returned a mean channel fluorescence (MCF) at 0.1 nM in test [3] of 53. The substance further came in with a fold more effective in staining than the “passively” loaded complex in test [4] of 10 to 100 fold. In test [5], the EC50 worked out at 10 nM. The substance also displayed an EC50 in test [6] of 1 nM. This substance also returned a concentration required for staining in test [7] of 10 nM. Besides, the lowest concentration at which staining was seen in test [8] is 0.1 nM. The same substance showed an EC50 in test [1] of 1 nM. For the same substance, in test [2], the 2C CTL mediated lysis of target cells (specific lysis) amounted to 35%, the concentration of maximal inhibition of proliferation of 2C CTL stimulated by allogeneic splenic cells was found to be 20 nM, the half maximal inhibition of proliferation of 2C CTL turned out to be 1 nM and the stimulation index of 2C CTL proliferation ([3H]thymidine) worked out at 10.
